{"source": "patent US20170107294A1", "about": "(NORDLANDSSYKEHUSET HF, published 2017)", "binders": {"B1": {"name": "recombinant 18D11 (r18D11), recombinant anti-human CD14 IgG2/4 Ab (antibody)", "heavy": "EVQLVESGGGLMQPKGSLKLSCAASGFTFKTYALNWVRQAPGTGLEWVARIRSKSNNYTTYYADSVKDRFTISRDDSQNMLYLQMNNLKTEDTAMYYCVRPQSGTSFAYWGQGTLVTVSAASTKGPSVFPLAPCSRSTSESTAALGCLVKDYFPEPVTVSWNSGALTSGVHTFPAVLQSSGLYSLSSVVTVPSSNFGTQTYTCNVDHKPSNTKVDKTVERKCCVECPPCPAPPVAGPSVFLFPPKPKDTLMISRTPEVTCVVVDVSQEDPEVQFNWYVDGVEVHNAKTKPREEQFNSTYRVVSVLTVLHQDWLNGKEYKCKVSNKGLPSSIEKTISKAKGQPREPQVYTLPPSQEEMTKNQVSLTCLVKGFYPSDIAVEWESNGQPENNYKTTPPVLDSDGSFFLYSRLTVDKSRWQEGNVFSCSVMHEALHNHYTQKSLSLSLGK", "light": "NIVLTQSPASLAVSLGQRATISCRASESVDSYGNSFMHWYQQKPGQPPKLLIYLASNLESGVPARFSGSGSRTDFTLTIDPVEADDVATYYCQQNNGDPYTFGGGTKLEIIRTVAAPSVFIFPPSDEQLKSGTASVVCLLNNFYPREAKVQWKVDNALQSGNSQESVTEQDSKDSTYSLSSTLTLSKADYEKHKVYACEVTHQGLSSPVTKSFNRGEC", "notes": "Mouse/human chimera: murine variable regions, human IgG2/4 hybrid heavy constant region (CH1 and hinge from IgG2, CH2 and CH3 from IgG4), human kappa; Made in HEK293-EBNA cells; also called recombinant anti-human CD14 Ab"}, "B2": {"name": "18D11 IgG1 F(ab')2 (Diatec) (other)", "VH": "EVQLVESGGGLMQPKGSLKLSCAASGFTFKTYALNWVRQAPGTGLEWVARIRSKSNNYTTYYADSVKDRFTISRDDSQNMLYLQMNNLKTEDTAMYYCVRPQSGTSFAYWGQGTLVTVSAA", "VL": "NIVLTQSPASLAVSLGQRATISCRASESVDSYGNSFMHWYQQKPGQPPKLLIYLASNLESGVPARFSGSGSRTDFTLTIDPVEADDVATYYCQQNNGDPYTFGGGTKLEIIR", "notes": "F(ab')2 fragment of the mouse IgG1 clone 18D11, bought; also called 18D11 F(ab)92; F(ab9)2 18D11"}, "B3": {"name": "recombinant Mil2 (rMil2), recombinant anti-porcine CD14 IgG2/4 Ab (antibody)", "heavy": "QVRLQQPGAELVRPGASVKLSCKASGYTFTTYWMNWVKQRPEDGLEWIGRIDPYDSETHYNQNFKDKAILTVDKSSSTAYMQLSSLTYEDSAVYYCTRKEGRQWGAYFDYWGQGTTLTVSSASTKGPSVFPLAPCSRSTSESTAALGCLVKDYFPEPVTVSWNSGALTSGVHTFPAVLQSSGLYSLSSVVTVPSSNFGTQTYTCNVDHKPSNTKVDKTVERKCCVECPPCPAPPVAGPSVFLFPPKPKDTLMISRTPEVTCVVVDVSQEDPEVQFNWYVDGVEVHNAKTKPREEQFNSTYRVVSVLTVLHQDWLNGKEYKCKVSNKGLPSSIEKTISKAKGQPREPQVYTLPPSQEEMTKNQVSLTCLVKGFYPSDIAVEWESNGQPENNYKTTPPVLDSDGSFFLYSRLTVDKSRWQEGNVFSCSVMHEALHNHYTQKSLSLSLGK", "light": "DIVMTQSQKFMSTSVGDRVSVTCKASQYVGTNVAWYQQKPGQSPKALIQSASYRCSGVPDRFTGSGSGTDFTLTISNVQSEDLADYFCQQYNTYVTFGGGTKLELKRTVAAPSVFIFPPSDEQLKSGTASVVCLLNNFYPREAKVQWKVDNALQSGNSQESVTEQDSKDSTYSLSSTLTLSKADYEKHKVYACEVTHQGLSSPVTKSFNRGEC", "notes": "Mouse/human chimera with human IgG2/4 hybrid heavy constant region and human kappa"}}, "key": {"[1]": {"target": "T1, human FcgRI ectodomains fused to GST (human; Schistosoma japonicum, UniProt P12314 16-292)", "T1 construct": "extracellular domain; also called hFcgRI; not shown: Schistosoma japonicum GST", "assay": "ELISA, coated Ab, GST-fused receptor", "procedure": "(§1) Ninety-six-well plates (Nunc, Roskilde, Denmark) were coated with serial dilution of the Abs (6.0-0.09 mg/ml) and incubated overnight at 4° C. followed by washing three times with PBS/Tween (pH 7.4). The wells were blocked with 4% skimmed milk (Neogen Europe, Auchincruive, U.K.) for 1 h at room temperature and then washed in PBS/Tween (pH 6.0). Purified hFcRn-GST or pFcRn-GST (1 mg/ml) were diluted in 4% skimmed milk in PBS/Tween (pH 6.0) and preincubated with an HRP-conjugated anti-GST Ab (GE Healthcare U.K., Buckinghamshire, U.K.) diluted 1:5000 and added to the wells. The plates were incubated for 1 h at room temperature and washed with PBS/Tween (pH 6.0). Bound receptor was detected by adding 100 ml of 3,39,5,59-tetramethylbenzidine substrate (Calbiochem-Novabiochem, Nottingham, U.K.). The absorbance was measured at 450 nm using a Sunrise TECAN spectrophotometer. The assay described above was also performed using PBS/Tween (pH 7.4) in all steps. The same setup was used with GST-fused versions of hFcgRI, hFcgRIIa (allotype His131), hFcgRIIb, hFcgRIIIa (allotype Val158), and hFcgRIIIb (1 mg/ml each). In addition, a biotinylated human C1q (hC1 q; 4 mg/ml) preparation was incubated with the Abs and detected using ALP-conjugated streptavidin (GE Healthcare). Absorbance was measured at 405 nm."}, "[2]": {"target": "T2, human FcgRIIIb ectodomains fused to GST (human; Schistosoma japonicum, UniProt O75015 17-200)", "T2 construct": "extracellular domain; also called hFcgRIIIb; not shown: Schistosoma japonicum GST", "assay": "ELISA, coated Ab, GST-fused receptor", "procedure": "as §1"}, "[3]": {"target": "T3, human FcgRIIIa (allotype Val158) ectodomains fused to GST (human; Schistosoma japonicum, UniProt P08637 17-208)", "T3 construct": "extracellular domain; also called hFcgRIIIa; not shown: Schistosoma japonicum GST", "assay": "ELISA, coated Ab, GST-fused receptor", "procedure": "as §1"}, "[4]": {"target": "T4, human FcgRIIb ectodomains fused to GST (human; Schistosoma japonicum, UniProt P31994 43-217)", "T4 construct": "extracellular domain; also called hFcgRIIb; not shown: Schistosoma japonicum GST", "T4 sequence (looked up)": "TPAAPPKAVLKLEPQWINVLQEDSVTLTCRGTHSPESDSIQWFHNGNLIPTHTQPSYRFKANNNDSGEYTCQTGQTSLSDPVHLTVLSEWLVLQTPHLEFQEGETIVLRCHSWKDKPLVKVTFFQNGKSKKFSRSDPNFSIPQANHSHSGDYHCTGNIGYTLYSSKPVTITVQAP", "assay": "ELISA, coated Ab, GST-fused receptor", "procedure": "as §1"}, "[5]": {"target": "T5, human C1q (hC1q), biotinylated (human, UniProt P02745 23-245; P02746 28-253; P02747 29-245, biotinylated)", "T5 construct": "also called complement component C1q", "T5 sequence (P02745 23-245 limits assumed, chain 1 of 3)": "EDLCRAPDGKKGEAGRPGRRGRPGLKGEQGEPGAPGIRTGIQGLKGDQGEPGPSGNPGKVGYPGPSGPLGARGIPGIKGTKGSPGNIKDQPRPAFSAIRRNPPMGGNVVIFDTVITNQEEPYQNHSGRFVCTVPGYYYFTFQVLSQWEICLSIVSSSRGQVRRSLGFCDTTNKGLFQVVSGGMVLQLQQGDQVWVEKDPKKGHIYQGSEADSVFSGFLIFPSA", "T5 sequence (P02746 28-253 limits assumed, chain 2 of 3)": "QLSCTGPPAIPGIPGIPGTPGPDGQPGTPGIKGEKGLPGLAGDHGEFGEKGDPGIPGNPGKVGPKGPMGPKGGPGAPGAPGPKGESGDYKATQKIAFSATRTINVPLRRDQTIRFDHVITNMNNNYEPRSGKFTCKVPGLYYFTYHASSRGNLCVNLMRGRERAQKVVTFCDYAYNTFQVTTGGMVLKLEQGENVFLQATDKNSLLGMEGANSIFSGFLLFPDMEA", "T5 sequence (P02747 29-245 limits assumed, chain 3 of 3)": "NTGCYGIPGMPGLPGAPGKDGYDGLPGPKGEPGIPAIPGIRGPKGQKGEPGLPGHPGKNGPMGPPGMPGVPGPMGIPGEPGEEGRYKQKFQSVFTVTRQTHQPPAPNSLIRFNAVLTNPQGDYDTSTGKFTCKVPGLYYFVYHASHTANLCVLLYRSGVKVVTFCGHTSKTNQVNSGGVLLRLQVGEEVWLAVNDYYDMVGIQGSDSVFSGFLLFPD", "assay": "ELISA, coated Ab, biotinylated hC1q", "procedure": "as §1"}, "[6]": {"target": "T6, human CD14 (human, UniProt P08571 20-345)", "T6 construct": "whole, on cells; also called CD14 on human monocytes", "T6 sequence (looked up)": "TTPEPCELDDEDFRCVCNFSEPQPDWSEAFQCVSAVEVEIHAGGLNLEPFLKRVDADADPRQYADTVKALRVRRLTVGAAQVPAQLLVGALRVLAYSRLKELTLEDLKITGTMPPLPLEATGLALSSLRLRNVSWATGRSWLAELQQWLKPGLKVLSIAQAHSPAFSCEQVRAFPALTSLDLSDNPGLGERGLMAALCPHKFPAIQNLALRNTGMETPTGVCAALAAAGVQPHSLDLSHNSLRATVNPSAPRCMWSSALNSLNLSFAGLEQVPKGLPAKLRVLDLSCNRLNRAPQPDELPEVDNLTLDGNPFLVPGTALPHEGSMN", "assay": "flow cytometry, human whole blood, displacement of 18D11 mIgG1 from monocytes", "text": "Fresh human or porcine whole blood was drawn into tubes containing the anticoagulants lepirudin (Refludan; Pharmion, Copenhagen, Denmark) or EDTA, respectively. […] Endotoxin-free Dulbecco phosphate buffered saline, PBS (Sigma-Aldrich), was used for diluting the Abs. […] Their binding was detected either by using a secondary PEconjugated anti-mouse IgG or through direct FITC fluorescence. Erythrocytes were lysed using FACS Lysing solution (BD Biosciences, Franklin Lakes, N.J.; human blood) or a solution of 0.16 M ammonium chloride, 10 mM sodium bicarbonate, 0.12 mM EDTA (Tritiplex III) and 0.04% (v/v) paraformaldehyde (porcine blood). In subsequent flow cytometry analyses, human monocyte and porcine granulocyte populations were selected based on the forward scatter-side scatter dot plot, and CD14 binding was recorded as mean or median fluorescence intensity, respectively."}}, "data": [{"binder": "B1", "values": [{"measurement": "binding result", "setting": "[1]", "result": "no binding"}, {"measurement": "binding result", "setting": "[2]", "result": "no binding"}, {"measurement": "binding result", "setting": "[3]", "result": "no binding"}, {"measurement": "binding result", "setting": "[4]", "result": "no binding"}, {"measurement": "binding result", "setting": "[5]", "result": "no binding"}]}, {"binder": "B2", "values": [{"measurement": "binding result", "setting": "[6]", "result": "binds"}]}, {"binder": "B3", "values": [{"measurement": "binding result", "setting": "[1]", "result": "no binding"}, {"measurement": "binding result", "setting": "[2]", "result": "no binding"}, {"measurement": "binding result", "setting": "[3]", "result": "no binding"}, {"measurement": "binding result", "setting": "[4]", "result": "no binding"}, {"measurement": "binding result", "setting": "[5]", "result": "no binding"}]}]}
